This is an account of results in patent US20230365647A1 (published 2023).

The test deals with T1, PLY (W433F) toxoid (Streptococcus pneumoniae, UniProt P0C2J9 2-471).
T1 construct: also called Pdb PLY (W433F); Pdb (W433F)
Kind of test: immunofluorescence co-localization in human DCs.

B1: Mannose receptor C type 1 on human monocyte-derived dendritic cells (receptor)
chain: LLDTRQFLIYNEDHKRCVDAVSPSAVQTAACNQDAESQKFRWVSESQIMSVAFKLCLGVPSKTDWVAITLYACDSKSEFQKWECKNDTLLGIKGEDLFFNYGNRQEKNIMLYKGSGLWSRWKIYGTTDNLCSRGYEAMYTLLGNANGATCAFPFKFENKWYADCTSAGRSDGWLWCGTTTDYDTDKLFGYCPLKFEGSESLWNKDPLTSVSYQINSKSALTWHQARKSCQQQNAELLSITEIHEQTYLTGLTSSLTSGLWIGLNSLSFNSGWQWSDRSPFRYLNWLPGSPSAEPGKSCVSLNPGKNAKWENLECVQKLGYICKKGNTTLNSFVIPSESDVPTHCPSQWWPYAGHCYKIHRDEKKIQRDALTTCRKEGGDLTSIHTIEELDFIISQLGYEPNDELWIGLNDIKIQMYFEWSDGTPVTFTKWLRGEPSHENNRQEDCVVMKGKDGYWADRGCEWPLGYICKMKSRSQGPEIVEVEKGCRKGWKKHHFYCYMIGHTLSTFAEANQTCNNENAYLTTIEDRYEQAFLTSFVGLRPEKYFWTGLSDIQTKGTFQWTIEEEVRFTHWNSDMPGRKPGCVAMRTGIAGGLWDVLKCDEKAKFVCKHWAEGVTHPPKPTTTPEPKCPEDWGASSRTSLCFKLYAKGKHEKKTWFESRDFCRALGGDLASINNKEEQQTIWRLITASGSYHKLFWLGLTYGSPSEGFTWSDGSPVSYENWAYGEPNNYQNVEYCGELKGDPTMSWNDINCEHLNNWICQIQKGQTPKPEPTPAPQDNPPVTEDGWVIYKDYQYYFSKEKETMDNARAFCKRNFGDLVSIQSESEKKFLWKYVNRNDAQSAYFIGLLISLDKKFAWMDGSKVDYVSWATGEPNFANEDENCVTMYSNSGFWNDINCGYPNAFICQRHNSSINATTVMPTMPSVPSGCKEGWNFYSNKCFKIFGFMEEERKNWQEARKACIGFGGNLVSIQNEKEQAFLTYHMKDSTFSAWTGLNDVNSEHTFLWTDGRGVHYTNWGKGYPGGRRSSLSYEDADCVVIIGGASNEAGKWMDDTCDSKRGYICQTRSDPSLTNPPATIQTDGFVKYGKSSYSLMRQKFQWHEAETYCKLHNSLIASILDPYSNAFAWLQMETSNERVWIALNSNLTDNQYTWTDKWRVRYTNWAADEPKLKSACVYLDLDGYWKTAHCNESFYFLCKRSDEIPATEPPQLPGRCPESDHTAWIPFHGHCYYIESSYTRNWGQASLECLRMGSSLVSIESAAESSFLSYRVEPLKSKTNFWIGLFRNVEGTWLWINNSPVSFVNWNTGDPSGERNDCVALHASSGFWSNIHCSSYKGYICKRPKIIDAKPTHELLTTKADTRKMDPSKPSSNVAGVVIIVILLILTGAGLAAYFFYKKRRVHLPQEGAFENTLYFNSQSSPGTSDMKDLVGNIEQNEHSVI
notes: also called MRC-1
B1: the binding result is on record as “no binding (tested: 0.2 µg/ml)”.
